Results: the Human Domainome abundance scans (Beltran et al. 2025)

B1: Zinc finger homeobox protein 4, residues 2562 to 2617; numbered along this chain, Q86UP3 (parent)
chain: RLRTTITPEQLEILYEKYLLDSNPTRKMLDHIAREVGLKKRVVQVWFQNTRARERK

Variants of: B1
Assay: abundance fitness (aPCA) (normalised: wild type 0, dead -1); higher = more abundant; growth selection in yeast, the domain comes from the species named
Conditions: Homo sapiens

Abundance fitness: each site, then its substitutions
E12: V -0.062; H -0.307; N -0.075; S 0.048; C -0.224; T 0.164; F 0.083; R 0.007; Y -0.435; G -0.039; P -0.659; M -0.075; A 0.01; Q 0.033; D -0.05; I 0.294; K 0.238; L -0.002; W -0.496
K27: D 0.478; C -0.096; L -0.019; V 0.099; G 0.074; T -0.147; M -0.206; P 0.128; Q 0.082; I -0.245; N -0.112; W -0.302; E 0.147; A 0.169; F -0.265; H 0.083; S 0.074; Y -0.142; R -0.475
T25: D -0.193; Q -0.476; C 0.181; A -0.384; P -0.147; M -0.364; L -0.546; I -0.526; R -0.72; E 0.095; H -0.596; G -0.331; S -0.056; N -0.148
Y18: C -0.817; F 0.425; L -0.439; D -1.13; I -0.246; M -0.856; K -0.544; H -0.773; S -0.975; W -0.31; E -0.943; P -0.842; T -0.874; R -0.659; N -0.59; Q -0.839; A -1.06; V -0.764
L19: R -0.112; M -0.131; T -0.175; E -0.136; W -0.229; C -0.084; K -0.154; Y -0.153; G -0.023; V -0.055; A -0.094; F -0.065; P -0.897; Q -0.214; N -0.091; S -0.034; I 0.196; D -0.098
Q10: E -0.641; H -0.466; Y -0.856; K -0.524; W -0.695; I -0.086; P -0.869; V -0.283; G -0.695; D 0.18; N -0.651; T -0.587; F -0.941; S -0.603; M -0.326
N23: A -0.064; R 0.017; H -0.302; K -0.054; T -0.213; G -0.121; W -0.208; F 0.301; E -0.086; V -0.356; Q 0.013; S -0.1; L -0.238; M -0.105; Y -0.062; C -0.738; P -0.425; I -0.091; D -0.039
Y15: N 0.075; T 0.067; A -0.105; Q 0.092; C -0.063; I -0.224; W 0.048; E 0.301; L 0.054; F -0.193; H 0.085; D -0.02; V -0.206; G 0.009; R 0.161; P -0.781; K 0.1
L14: G -0.773; H -0.846; Q -0.959; Y -0.867; P -0.658; M -0.225; E -0.924; T -1; V -0.945; S -0.998; K -1.05; R -0.849; W -1.16; N 0.341; D -0.754; C -1.16; A -0.765; F -0.718
L11: D 0.108; E 0.092; S -0.082; H -0.01; K -0.05; T 0.215; A -0.059; I -0.037; V 0.123; Q 0.017
